{"source": "patent US20210198328A1", "about": "“MODULATED CAS-INHIBITORS” (Universität Heidelberg, priority 2017, published 2021)", "key": {"[1]": {"target": "dCas9-3xRFP (Streptococcus pyogenes) (UniProt Q99ZW2)", "assay": "cell-based or functional assay"}, "dCas9-p300": {"target": "dCas9-p300 (UniProt Q99ZW2)", "assay": "cell-based or functional assay"}}}
{"sequence": "CASANOVA (Acr-LOV variant 4; delta N64/Q65/E66, LOV2 inserted, no GS-linkers)", "values": [{"measurement": "telomere labeling in U2OS nuclei, dark: cells labeling negative", "setting": "[1]", "value": 60, "unit": "%"}, {"measurement": "telomere labeling in U2OS nuclei, dark: more than 15 dots in the nucleus", "setting": "[1]", "value": "< 5", "unit": "%"}, {"measurement": "telomere labeling in U2OS nuclei, light: more than 15 dots in the nucleus", "setting": "[1]", "value": 40, "unit": "%"}, {"measurement": "telomere labeling in U2OS nuclei, light: nuclei labeling positive", "setting": "[1]", "value": 80, "unit": "%"}, {"measurement": "IL1RN transcript levels by quantitative RT-PCR, light against dark", "setting": "dCas9-p300", "value": "< 10", "unit": "fold"}]}
